Laboratory results as given in the DeepSol protein solubility set.

Assay: soluble on expression in E. coli; label from the status in PepcDB or PDB records

Sequence | soluble on expression in E. coli
MGSDKIHHHHHHMSDIQLSLLNDFQRGFPLTSTPFDAIAQRLGLDVEALLDTLRRLTREGVVSRVGAVFRPNRVGVSTLAAMAVPEGRLDEVARLVSARPEVNHNYEREHRFNLWFVAAAANPAQLEQALHDIEQQTGLAAMRLPMVQDYHIDLGFDLRRSVGLTDRHQQKAAPSRALELDALDYVLVEAIQEGLPLVARPYAEVAAFIGTSEADVLIRLGRLLDHGVIKRLGIVVRHHELGFRANAMVVWNIPDEQVDEFGRCVGASGLVNLCYQRPRRLPEWPYNLFCMIHGKDRDAVLEHLDHLRDQCGLTDFPCEVLFSKRRFKQTGARYLAAQPKAAAEAT | not soluble
MGSDKIHHHHHHMAFYPVHKELQNISQSMPQGNFGLWYNKFIPLSDDAFKPSDDKGSNGKGDENRPVDYYFGQYSKLRLNAAETAAILKQKHEDMDDFCANFPPQKYEEIAICATLDSPLITGIGESHPHEVSMVFDHNMGIPYIPASGVKGIVRFAHTISLIPEAMNKAEVIDNVRFDDEADWTSVPHMFGTQKNRGNVIFLDAYPEDIPALHMDIMNPHYSPYYSEGKPPADHHNPTPIKFLTVAKGTKFIFRAVAKKEQNLPQKIRVAFAEALTKEGVGAKIALGYGRFVIDEDGQKVLLKKRKQRHEEKKRRLSPWLDYIELINQVGDWGQFKQIVLDNEKLVEYRKEMDVTEAVRIKALEIRNKWRKSWGASRDEQIATWLQPAGVEWPCIVAGIENPVKEKSADYEKIMQLIDWGAYKSAGIDLSKLPLDALQLLKQKMEEWGCYSKKAKEDKKTAFKKVKDLLRQHQK | not soluble
MGSDKIHHHHHHMKQFSGLSRTIQGNHLLDTCAIDILKIGHRPLVLCAKQEYNTTVESFVKVLTCHGLIVKIVYMEEWDQNSVEECGEVGFRHRADHIIGIGNSSVAACTKAVADLLDLPAVLIPTSPFTTLPWVSVENKKRERPLFNESIQLIIADREQLLTQPTSELINGVVNTLLYLAAIKEVKRNHLFSLVDDILIRSFESVLLRGSLQAIEDFEARILSKEVQDVLEVLSTCVTLDLPSDAWDVIQQIESKLSERREDLVDEPLKRNVVLYLLLSYLTQESEEFQARLKWCQQLLLSANSSNLLSLEAVLKEIALEMGEDGSTRC | not soluble
MGSDKIHHHHHHMVETLAGLFDFEMDPQSGVALTRQLRDQLRRAIAAGSLASGRRLPSSRALALHLRVSRNTVCAAIEQLAMEGYLDVSRGRRPVVAPMPSAGLVAIGSDRPVSDGRSGMSQWAQRIDRSDWPFISEGRPTPFAPCVADARAFPHAIWGRCLRTATRYAVARTSTACNRPGLRRALLHHLVEYRGVNADAHQVFLMPTAQAAIALVARVLLDPGDLAWVESPGYGGARAAFEAAGATVQGIALDQSGMAFETSTDTPRLIFVTPAHQHPTGLLMPPARRQALLRFAARVGARIIEDDYDSEFHYEGRPVAALQGADDADSVFYVGTFSKSLHADIRVGYVVVPGHFVDVFAKAQRHTGQIVGATLQDALAEFIDDGHYAAHIRKTTRLYHARRDYLCDALKAVGSELTVSPPDGGMQVVARLGPLRDDREICRRLAEAGVTARPLSPHYCAQTGAQGLFLGFAAWNECEIDAGVRILARVIREPEPSK | not soluble
MSERILPSTLRGVTNGQKEVTASVGERVPLLPRRFSARPQGNQEAQERTAVKCEQVRYAIQEVIGRGAFGEVSSAEVVGTRDLVAIKRVIHDGRLRQRELTLMRDHLGPNTQQGGVSSLDVGNGVGAHATSVTGSNGEEANGTTAIDGLESWNMPTIVPYHPCVVKLLDHFFASDPSGVQYLFMVMDYIPLDVRRLHHMFLRQREQQMPIILVKVIMFQLARALAFLHARGICHRDVKPNNILVDQETGVVKLCDFGSAKKMQAVGGEGPREKNVPYIFSRYYRAPELLLGSQYYHFHVDMWAFGCVLAELLCGKVLFKGSSSTMDQLVEIIKVLGKPSERELFALNPQSAGSALIRTWGDSHNASQLSPTPSGPLPSSNSANADYMQRRSAPRVKSLLWVEVLPPNTSQAALSLIEQLLRYTPEERLTSAEVLEHVFFDELFSDDARLPNGAPLPASMFQVTREEAEILPPWLLERMAAAEGVAKGRELNQSATAPENAI | not soluble
MDAVDATMEKLRAQCLSRGASGIQGLARFFRQLDRDGSRSLDADEFRQGLAKLGLVLDQAEAEGVCRKWDRNGSGTLDLEEFLRALRPPMSQAREAVIAAAFAKLDRSGDGVVTVDDLRGVYSGRAHPKVRSGEWTEDEVLRRFLDNFDSSEKDGQVTLAEFQDYYSGVSASMNTDEEFVAMMTSAWQL | not soluble
VGPKTGEENQVLVPNLNPTPENLEVVGDGFKITSSINLVGEEEADENAVNALREFLTANNIEINSENDPNSTTLIIGEVDDDIPELDEALNGTTAENLKEEGYALVSNDGKIAIEGKDGDGTFYGVQTFKQLVKESNIPEVNITDYPTVSARGIVEGFYGTPWTHQDRLDQIKFYGENKLNTYIYAPKDDPYHREKWREPYPESEMQRMQELINASAENKVDFVFGISPGIDIRFDGDAGEEDFNHLITKAESLYDMGVRSFAIYWDDIQDKSAAKHAQVLNRFNEEFVKAKGDVKPLITVPTEYDTGAMVSNGQPRAYTRIFAETVDPSIEVMWTGPGVVTNEIPLSDAQLISGIYNRNMAVWWNYPVTDYFKGKLALGPMHGLDKGLNQYVDFFTVNPMEHAELSKISIHTAADYSWNMDNYDYDKAWNRAIDMLYGDLAEDMKVFANHSTRMDNKTWAKSGREDAPELRAKMDELWNKLSSKEDASALIEELYGEFARMEEACNNLKANLPEVALEECSRQLDELITLAQGDKASLDMIVAQLNEDTEAYESAKEIAQNKLNTALSSFAVISEKVAQSFIQEALSFDLTLINPRTVKITASSEETSGENAPASFASDGDMNTFWHSKWSSPAHEGPHHLTLELDNVYEINKVKYAPRQDSKNGRITGYKVSVSLDGENFTEVKTGTLEDNAAIKFIEFDSVDAKYVRLDVTDSVSDQANGRGKFATAAEVNVHG | soluble
MGSDKIHHHHHHMKKQFEMYFSLGTLIGYMHDNKLIATGGVFPFKDSFSTIGMLIVHPNFQGQGIGRTLLNHCLAHTHPKQPIALIATKAGEPLYTSCGFQTVTTIHRFEKQTTKTHITHTQQVKEKDIISLISLDQSTTGADRSLLYSLLLPRTSHSFKIERHNCIEAFSLCIQKGNILCINPLIAKREEDAIQLLQKICECWNGTVRLDVPHSQFSFRKLLQTENFQETLLSPLMIKNGSQLPGNRNMLFAMIDTALC | not soluble
MSLPGSSNRPLPSSNDEFHYEDIELPSGYRSEGEVVDLLNPKDELEEPLFSEEPLFPVTTSIPTKTAVSKPKIAPTSAAKDVTFSSSIDSDDCSVAYDNSKPVRQYVLMIDAGSTGSRVHVYQFNNCNPSPKLEEEFFKMIEPGLSSFAGDPEGAAASLDPLLDYAMENVPEEYRRCSPIAVKATAGLRLTGESEAKAILKSVRQHLENDYPFPIVKDGVSILEGSMEGIYAWITINYLLGTLGGKATHSTVAVMDLGGASTQLVFEPRFASDGESLVDGDHKYVLDYNGEQYELYQHSHLGYGLKEARKLIHKFVLNNAEALKESLELLGDSTSIIHPCLHLNASLTHPDSKSEASEVVFVGPSLAHLSLQCRGIAEKALYKDKNCPVRPCSFNGVHQPKFTETFTDSPIYLISYFYDRMISLGMPSTFTIEDMKYLANSVCSGPTYWQDAFSLTDALKELKEEPEWCLDLNYMISLLSVGYEIPNNRQLHTAKKIDNKELGWCLGASLSMLSEQNNGWNCNVKEEIEGHHHHHH | not soluble
MGSDKIHHHHHHMMLSVSLAALRTFVEVARLRSFKDAAQSLGVTSGAVSQQVKLVENRLDVTLFERSGRNVKLTEQGLRLLGAIHVPFEQIREAVEDFDRRRSARNVVRIVTPIALASHWLVPRMDRFSRRHPDIELHIDTAHAEGVRRQLFDIAIQYGNETAPGVEAKRLPSSKLVVVGSPQLLEGASPIRDPSDCLKFPLLHDHDRLNWPAWFRANGSTHLPAASRKGLSFADESLLVAAAAAAQGLALVRDIHAENLLLHGRLKIAIETSMEPFQSYYLLTPSLVSQRPVVDACKNWILSEMARPVFLDLLSRP | not soluble
MSVWASRLKAMGLLENLLNRYTPRTSGTPVFAVIDTGTTGFNKRYDHIIELAAVRADAYFKPVDSWHALLNPDTNAVSTTRGTPPPTSALNPAVGVTRSEAS | not soluble
AWQVNTAYTAGQLVTYNGKTYKCLQPHTSLAGWEPSNVPALWQLQ | soluble
MSLARTRILIVDDEDSIRFGMRDFLESRGYGVVDADSCQRARELFQASPPDVAVIDYRLHDGSAIDLLRDFRQIDADVPMIVLTAYGSIDLAVQAVKEGAEQFLTKPIEMPALHVILKRLLATRRLQRQQQVVATRDRRERVNPLSGGSPAIRDLAEQASKVMHTDSPILILGETGTGKSLLAKWLHHHGMRADEAFVDLNCAGLSPDFLETELFGHEKGAFTGATASKQGMLEIADGGTVFLDEIGDVDPRVQPKLLKVLEEKRFRRLGAVREREVDIRLIAATHHDLASKVKEGTFRSDLYFRISSIPLTMPALRDRKEDIVPLARTLLARSLADPSRTPQLTDDAALALREYAWPGNIREGHHHHHH | not soluble
MVESTRVRSKRLSFSGKKTLSSFMQVNIASLRQSGKLRTSETYRATLNSFMKFMDGKDVLLSNMDAELMMGYETYLKAQGASMNTVSFYMRILRATYNRAVDKGVIRQRFPFKHVYTGVEKTVKRAISFKVIRQLKEMDLSHSQSMEFARDMFMFSFYTRGMSFVDMAFLKKTDLNNGMLTYRRKKTGQLLSIRWEKCMQDIVDKYPGNYSTYLLPIIIHIRKDERLQYKNSICLVNRRLKEIGKKLGLVHPLTMYVARHSWASVARGKHIPLSVISEGMGHDSEKTTLIYLAALDTTVIDKANMVVLREFL | not soluble
MSLMTLYPVVVQERTTGEVLMLAYANEEALELTKKTGYAHFFSRERQKIWKKGETSGNTMRVVEIRRDCDDDAYLYIVDFPEDKVACHTGNRSCFFKVEHRFEETGSPTFWLELYRLVRKRKEEMPEGSYTVKLFKEGKGKIAKKFGEEAVEVITGYLQNDRENLVWEIADMMYHLTVLMADAGVTVQDVMRELEKRRKEGHHHHHH | soluble
GPGSMTHNRSGAVRRKVVQHDFYDSADQVGGVVLLNNPTNGSWEYDEYLRLLTTKRYSRIPSWEAHSTAQCYFVCADGVYPKLQSYVKERQVSHPHLRLFQFFPLCDAVIGDMDSYVTSYEKDGCERPSSTPEGGYGTVDDIPVEVLDTIHHRCRSAAALFREVDGSVPDTPLNGWKMLHEEHSHPLLRPLWLHIQCQITTDFKKALTLLKRLRKRYPDENAVVLPPVLRSPGAARILETGGGVVDQRNCGCDNDPIQERELCVAASQVEALLLPTVVAVGAFGGRFDHEVGAISTMLSESHDAHIVLINLFNTVFACQGGGWTQIVRQPEYEDKTCGLVNYGRMTECETSGLLWNVVKGRGRPSVTNDFVFDFGAFISVCNIVRREVITVDLRCLLTSVGESPADATTATGASDCEAQRGRGPPVVFSILRRQKKEGG | not soluble
MSLPLIIPENIPAYELLKEHAFIMGLRRAKHQDIRPQEILIVNLMPKKIETENQILSLLANSPLQVNITLLATTSYVGKNTPFTHLEKFYKGLEEVKKHKFDGAIVTGAPVEQMDFEKVAYWEELLEIFDFLKQNVTSSMYICWGAMAALKYFYGVDKISLDKKIFGVYKHDKVSPDLLLTNLDEKVLMPHSRHSSMDEEQILALQKQGKLKILLRNKKIGSALLRDEKNIFILGHLEYFKETLHQEYVRDNFIQKAKNYYDKKGNIKYNWRSNANTIFANWLNYDVYQSTPFVLEGHHHHHH | soluble
MRGSHHHHHHGMASMAVSESQLKKMVSKYKYRDLTVRETVNVITLYKDLKPVLDSYVFNDGSSRELMNLTGTIPVPYRGNTYNIPICLWLLDTYPYNPPICFVKPTSSMTIKTGKHVDANGKIYLPYLHEWKHPQSDLLGLIQVMIVVFGDEPPVFSRP | soluble
